In patent publication US20260263521A1, “ANTI-CD200R1 ANTIBODY AND USE THEREOF” (AIMED BIO INC., priority 2023, published 2026):
Positions count from the first letter of the chain named. Names may count otherwise. Each block holds one molecule with its values, some of them ahead of it.

What was measured:
[1] = molecular target: T1, CD200R1 on Jurkat-CD200R1 cells (Homo sapiens, UniProt Q8TD46); test: Cell binding assay (flow cytometry), Jurkat-CD200R1 cells; assay type: cell-based; conditions: Jurkat-CD200R1 cells; 500 nM; IgG1 form
T1 construct: host or cells: Jurkat
T1 sequence (Q8TD46 25-348): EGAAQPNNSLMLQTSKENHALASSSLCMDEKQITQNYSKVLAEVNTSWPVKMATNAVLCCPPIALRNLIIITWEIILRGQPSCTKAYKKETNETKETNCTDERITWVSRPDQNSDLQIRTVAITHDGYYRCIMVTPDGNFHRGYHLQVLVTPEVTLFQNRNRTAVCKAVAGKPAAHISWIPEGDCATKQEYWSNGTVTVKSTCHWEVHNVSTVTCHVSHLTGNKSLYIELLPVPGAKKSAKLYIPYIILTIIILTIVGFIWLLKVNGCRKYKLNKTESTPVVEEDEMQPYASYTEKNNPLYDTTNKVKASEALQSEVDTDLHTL
Experimental: (§1) The binding ability of the antibodies identified using unique multifaceted antibody discovery technology was identified in HH (CRL-2105) cells, which endogenously express CD200R1, and Jurkat-CD200R1 cells (Source: DiscoverX), which were generated by intranuclear injection of CD200R1 cDNA.
(§2) HH and Jurkat-CD200R1 cells were maintained in RPMI 1640 medium supplemented with 10% heat-inactivated FBS and 1% Penicillin/Streptomycin (P/S). The cells were washed by centrifugation at 130 g for 5 minutes. The cells were seeded onto 96-well round-bottom plates (SPL, #34296) at a density of 1×10^5 cells/well in Flow cytometry staining buffer (Invitrogen, #00-4222-26) or FACS buffer. The cells were treated with all 16 substances and the positive control LY3454738 (US 2020/0087395, I-4P, at Eli Lilly) a concentration of 500 nM in the IgG1 form. After incubation for 1 hour at 4° C., the cells were treated with Alexa-647 Goat anti-human IgG (H+L) cross-adsorbed secondary antibody (Invitrogen, #A21445) and incubated at 4° C. for an additional 30 minutes. […]
(§3) Cell-binding ability was determined in the same manner as in Example 12. For the six active substances primarily selected in Example 12, the isotype was changed to IgG4 or the LALAPG gene was mutated, and binding activity was determined in the two cell lines mentioned above.
(§4) Binding ability was determined in HH, an endogenous T cell line with high CD200R1 expression, and two additional overexpressing cell lines: U937-CD200R overexpressing cells, generated by intranuclear injection of human CD200R1 CDNA into the monocytic cell line U937 (CRL-1593.2) (Source: UMC Utrecht, the Netherlands) and Jurkat-CD200R overexpressing cells, were also cells engineered using a similar method.
(§5) All cell lines were maintained in RPMI 1640 medium supplemented with 10% heat-inactivated FBS and 1% penicillin/streptomycin (P/S) and cell binding was determined in the same manner as in Example 12. […]
(§6) Specific binding ability was determined using P001009 WT and antibody-optimized mutants, P001009v1, P001009v2, P001009v3, and P001009v4. […]

[2] = molecular target: T2, CD200R1 on HH (CRL-2105) cells (Homo sapiens, UniProt Q8TD46); test: Cell binding assay (flow cytometry), HH cells; assay type: cell-based; conditions: HH cells; 500 nM; IgG1 form
T2 construct: HH (CRL-2105) cells, which endogenously express CD200R1; host or cells: HH (CRL-2105) cells
T2 sequence (Q8TD46 25-348): T1 sequence (Q8TD46 25-348)
Experimental: as §1, §2, §3, §4, §5, §6

human CD200R1 [3] = molecular target: T3, human CD200R1 (Homo sapiens, UniProt Q8TD46); test: ELISA binding to human CD200R1; conditions: for affinity compared with P001018 clone: scFv mutants, antigen binding (ELISA) and cell binding (FACS); for binding ability to human CD200R1 compared to parent: ELISA, Example 14
T3 sequence (Q8TD46 25-348): T1 sequence (Q8TD46 25-348)
Experimental: 96-well plates were coated with human CD200R1 (R&D systems, 3414-CD) and mouse CD200R1 protein (R&D systems, 2554-CD) at a concentration of 2 μg/mL at 4° C. for 16 hours and then were blocked with 3% skim milk. The result was treated with the antibodies at concentrations of 300 nM, 60 nM, 12 nM, 2.4 nM, 0.48 nM, 0.096 nM, and 0.0192 nM, and reacted at room temperature for 2 hours.
The result was washed with PBST and distilled water, the samples were bound with a goat-derived HRP-conjugated anti-human antibody (Invitrogen, 31482, Goat anti-Human IgG F(ab′)2 Secondary Antibody, HRP) for 1 hour at room temperature, and then washed again with PBST and distilled water. Color was developed with a TMB substrate solution (Thermo Scientific, 34029, 1-Step™ TMB-ELISA Ultra Substrate Solution). The color reaction was stopped with stop solution (Invitrogen, SS04, ELISA Stop Solution). The absorbance was measured at an optical density of 450 nm.

cynomolgus CD200R1 = test: SPR binding kinetics, cynomolgus CD200R1; conditions: cynomolgus CD200R1-his captured on anti-His CM5 chip, 1:1 Langmuir fit
Experimental: (§7) The CD200R1-specific binding ability of the antibodies (P001009 wt, P001009 v1, P001009 v2, P001009 v3, P001009 v4) selected in Example 14 was analyzed using surface plasma resonance (SPR). For the experiment, 30 μg/mL of an anti-histidine antibody was conjugated to a CM5 biacore chip via an amine bond while allowing to flow at 10 μl/min (10,000 RU). Then, 0.25 μg/mL of human or cynomolgus CD200R1 with dual His-tags was captured onto the completed chip for 60 seconds, and the binding ability of each antibody was analyzed. All experiments were performed by association of antibodies for 120 seconds and dissociation of antibodies for 600 seconds. The resulting graphs were fitted using a 1:1 Langmuir binding kinetic model (FIG. 16), and the kinetics of each antibody were calculated.

monkey CD200R1 = test: ELISA binding to monkey CD200R1; conditions: Example 14
Text: Therefore, the LC D51 and LC D92 sequences were not substituted during the optimization process. However, since LC N30 and LC N31 can play an important role in the specific binding of antibodies as paratopes, the sequences were substituted and optimized. Through rational design, LC S52 and LC S94 were substituted with K and R, respectively, to derive P001009v1, and LC S52 and LC D93 were substituted with K and R, respectively, to derive P001009v2. Further, P001009v3, in which LC N30 was substituted with S, and P001009v4, in which LC N31 was substituted with K, were derived and produced, and the binding ability to human, mouse, and monkey CD200R1 was analyzed by ELISA (FIG. 15). […] Both […] and variants thereof had very weak binding ability to mouse CD200R1 at concentrations up to 300 nM.

human CD200R1 [4] = molecular target: T3, human CD200R1; test: SPR binding kinetics, human CD200R1; conditions: hCD200R1-his captured on anti-His CM5 chip, 1:1 Langmuir fit
Experimental: as §7

B1: ch1F1: clone discovered using hybridoma technology (1F1), tested in IgG1 form (antibody, V domains shown)
VH: QVQLQQPGAEFVKPGAPVKLSCKASGYTFTSYWMNWVKQRPGRGLEWIGRIDPADSEIHYNQKFKDKATLTVDKSSSTAYIQFSSLTSEDSAVYYCARSGGWLPGFAYWGQGTLVTVSA
VL: ENVLTQSPAIMSASPGEKVTMTCSASSSLIYMHWYQQKSSTSPKLWIYDTSKLASGVPGRFSGSGSGNSYSLTINSMEAEDVATYYCFQGSGYPLMYTFGGGTKLEIK
- cell binding ability [1]: significant binding ability
- cell binding ability [2]: significant binding ability

B2: H3-Y102K: P001018 scFv mutant, SEQ ID NO: 164 (protein)
scFv: QVQLVQSGAEVKKPGASVKVSCKASGYTFTSYVMHWVRQAPGQGLEWMGYINPYNDDTNYNEKFKGRVTMTRDTSTSTVYMELSSLRSEDTAVYYCAREDYYGSRWGKWGQGTLVTVSSGGGGSGGGGSGGGGSDIVLTQSPASLAVSPGQRATITCRASKSVSTSGYSYMHWYQQKPGQPPKLLIYLASNLESGVPARFSGSGSGTDFTLTINPVEANDTANYYCQHSRELLTFGQGTKVEIK
- affinity compared with P001018 clone (human CD200R1 [3]): enhanced affinity

B3: L3-R92H: P001018 scFv mutant, SEQ ID NO: 166 (protein)
scFv: B2 scFv with K108Y, R230H
- affinity compared with P001018 clone (human CD200R1 [3]): enhanced affinity

B4: L3-R92S: P001018 scFv mutant, SEQ ID NO: 167 (protein)
scFv: B2 scFv with K108Y, R230S
- affinity compared with P001018 clone (human CD200R1 [3]): enhanced affinity

B5: L3-L95D: P001018 scFv mutant, SEQ ID NO: 170 (protein)
scFv: B2 scFv with K108Y, L233D
- affinity compared with P001018 clone (human CD200R1 [3]): enhanced affinity

B6: L3-L94S: P001018 scFv mutant, SEQ ID NO: 168 (protein)
scFv: B2 scFv with K108Y, L232S
- affinity compared with P001018 clone (human CD200R1 [3]): enhanced affinity

B7: L3-L94H: P001018 scFv mutant, SEQ ID NO: 169 (protein)
scFv: B2 scFv with K108Y, L232H
- affinity compared with P001018 clone (human CD200R1 [3]): enhanced affinity

B8: L3-T96R: P001018 scFv mutant, SEQ ID NO: 171 (protein)
scFv: B2 scFv with K108Y, T234R
- affinity compared with P001018 clone (human CD200R1 [3]): enhanced affinity

B9: H3-Y102T: P001018 scFv mutant, SEQ ID NO: 165 (protein)
scFv: B2 scFv with K108T
- affinity compared with P001018 clone (human CD200R1 [3]): enhanced affinity

- Ka (cynomolgus CD200R1): 2.82e+06 M⁻¹ s⁻¹
- binding ability to monkey CD200R1 compared to parent (monkey CD200R1): significantly improved
B10: P001009v2: P001009 variant, LC S52 and LC D93 substituted with K and R; VH SEQ ID NO: 79 (antibody, V domains shown)
VH: EVQLLESGGGLVQPGGSLRLSCAASGFTFSSYDMSWVRQAPGKGLEWVSWISHGGGSIYYADSVKGRFTISRDNSKNTLYLQMNSLRAEDTAVYYCARDAPAYSAPLFDYWGQGTLVTVSS
VL: QSVLTQPPSASGTPGQRVTISCSGSSSNIGNNAVNWYQQLPGTAPKLLIYYDKNRPSGVPDRFSGSKSGTSASLAISGLRSEDEADYYCAAWDRSLSGYVFGGGTKLTVL
- Ka (human CD200R1 [4]): 7.52e+06 M⁻¹ s⁻¹
- binding ability to human CD200R1 compared to parent (human CD200R1 [3]): reduced

- Ka (cynomolgus CD200R1): 3.71e+06 M⁻¹ s⁻¹
- binding ability to monkey CD200R1 compared to parent (monkey CD200R1): improved
B11: P001009v4: P001009 variant, LC N31 substituted with K; VH SEQ ID NO: 79 (antibody, V domains shown)
VH: B10 VH
VL: B10 VL with N32K, K53S, R94D
- Ka (human CD200R1 [4]): 6.74e+06 M⁻¹ s⁻¹
- binding ability to human CD200R1 compared to parent (human CD200R1 [3]): reduced
